Test results taken from patent publication US11504441B2, “Radiolabeled compounds targeting the prostate-specific membrane antigen” (PROVINCIAL HEALTH SERVICES AUTHORITY, priority 2019, dated 2022).

Columns and labels:
[1] = test system: PSMA-expressing LNCaP cancer xenografts; conditions: mouse, in vivo
Experimental: LNCaP cell line was obtained from ATCC (LNCaP clone FGC, CRL-1740). […] Cells were cultured in PRM I 1640 medium supplemented with 10% FBS, penicillin (100 U/mL) and streptomycin (100 μg/mL) at 37° C. in a humidified incubator containing 5% CO2. Cells grown to 80-90% confluence were then washed with sterile phosphate-buffered saline (1× PBS pH 7.4) and collected by trypsinization. The collected cells concentration was counted with a Hausser Scientific (Horsham, Pa.) Hemacytometer.
Imaging and biodistribution experiments were performed using NODSCID 1 L2RγKO male mice. Mice were anesthetized by inhalation with 2% isoflurane in oxygen, and implanted subcutaneously with 1×10^7 LNCaP cells behind left shoulder. Mice were imaged or used in biodistribution studies when the tumor grew up to reach 5-8 mm in diameter during 5-6 weeks.
PET imaging experiments were conducted using Siemens Inveon micro PET/CT scanner. Each tumor bearing mouse was injected 6-8 MBq of Ga-68 labeled tracer through the tail vein under anesthesia (2% isoflurane in oxygen). The mice were allowed to recover and roam freely in their cage. After 50 min, the mice were sedated again with 2% isoflurane in oxygen inhalation and positioned in the scanner. A 10-min CT scan was conducted first for localization and attenuation correction after segmentation for reconstructing the PET images. Then, a 10-min static PET imaging was performed to determined uptake in tumor and other organs. The mice were kept warm by a heating pad during acquisition. For biodistribution studies, the mice were injected with the radiotracer as described above. The mice was anesthetized with 2% isoflurane inhalation, and euthanized by CO2 inhalation. Blood was withdrawn immediately from the heart, and the organs/tissues of interest were collected. The collected organs/tissues were weighed and counted using a Perkin Elmer (Waltham, Mass.) Wizard2 2480 gamma counter. The uptake in each organ/tissue was normalized to the injected dose using a standard curve, and expressed as the percentage of the injected dose per gram of tissue (% ID/g).
LNCaP cell line was obtained from ATCC (LNCaP clone FGC, CRL-1740). […] Cells were cultured in PRM I 1640 medium supplemented with 10% FBS, penicillin (100 U/mL) and streptomycin (100 μg/mL) at 37° C. in a humidified incubator containing 5% CO2. Cells grown to 80-90% confluence were then washed with sterile phosphate-buffered saline (1× PBS pH 7.4), and collected by trypsinization. The collected cell concentration was counted with a Hausser Scientific (Horsham, Pa.) Hemacytometer.
Imaging and biodistribution experiments were performed using NODSCID 1L2RγKO male mice. Mice were anesthetized by inhalation with 2% isoflurane in oxygen, and implanted subcutaneously with 1×10^7 LNCaP cells behind left shoulder. Mice were imaged or used in biodistribution studies when the tumor grew up to reach 5-8 mm in diameter during 5-6 weeks.
PET imaging experiments were conducted using Siemens Inveon micro PET/CT scanner. Each tumor bearing mouse was injected 6-8 MBq of Ga-68 or F-18 labeled tracer through the tail vein under anesthesia (2% isoflurane in oxygen). The mice were allowed to recover and roam freely in their cage. After 50 min, the mice were sedated again with 2% isoflurane in oxygen inhalation and positioned in the scanner. A 10-min CT scan was conducted first for localization and attenuation correction after segmentation for reconstructing the PET images. Then, a 10-min static PET imaging was performed to determined uptake in tumor and other organs.
For biodistribution studies, the mice were injected with the radiotracer as described above.

[2] = in vivo; set-up: species or system mice; conditions: male, NODSCID 1L2RγKO, mouse, iv, total radioactivity

O=C(O)CCC[C@H](NC(=O)N[C@@H](CCCCNC(=O)[C@H](Cc1c2ccccc2cc2ccccc12)NC(=O)[C@H]1CC[C@H](CNC(=O)CN2CCN(CC(=O)O)CCN(CC(=O)O)CCN(CC(=O)O)CC2)CC1)C(=O)O)C(=O)O [HTK03149]
uptake in kidney and salivary gland compared to HTK03041 [1]: significantly decreases the uptake

O=C(O)CCCCC(NC(=O)N[C@@H](CCCCNC(=O)[C@H](Cc1c2ccccc2cc2ccccc12)NC(=O)[C@H]1CC[C@H](CNC(=O)CN2CCN(CC(=O)O)CCN(CC(=O)O)CCN(CC(=O)O)CC2)CC1)C(=O)O)C(=O)O (single isomer, unassigned) [68Ga-HTK03189B, metal not drawn]
Adrenal glands uptake ([1]; male, NODSCID 1L2RγKO, iv, 1 h): 0.37 ± 0.15 % ID/g
Blood uptake ([1]; male, NODSCID 1L2RγKO, iv, 1 h): 1.06 ± 0.25 % ID/g
Bone uptake ([1]; male, NODSCID 1L2RγKO, iv, 1 h): 0.10 ± 0.02 % ID/g
Brain uptake ([1]; male, NODSCID 1L2RγKO, iv, 1 h): 0.03 ± 0.00 % ID/g
Fat uptake ([1]; male, NODSCID 1L2RγKO, iv, 1 h): 0.17 ± 0.10 % ID/g
Heart uptake ([1]; male, NODSCID 1L2RγKO, iv, 1 h): 0.30 ± 0.06 % ID/g
Intestine uptake ([1]; male, NODSCID 1L2RγKO, iv, 1 h): 0.28 ± 0.07 % ID/g
Kidneys uptake ([1]; male, NODSCID 1L2RγKO, iv, 1 h): 2.13 ± 0.45 % ID/g
Lacrimal uptake ([1]; male, NODSCID 1L2RγKO, iv, 1 h): 0.13 ± 0.04 % ID/g
Liver uptake ([1]; male, NODSCID 1L2RγKO, iv, 1 h): 0.39 ± 0.08 % ID/g
Lungs uptake ([1]; male, NODSCID 1L2RγKO, iv, 1 h): 0.82 ± 0.22 % ID/g
Muscle uptake ([1]; male, NODSCID 1L2RγKO, iv, 1 h): 0.12 ± 0.03 % ID/g
Pancreas uptake ([1]; male, NODSCID 1L2RγKO, iv, 1 h): 0.18 ± 0.05 % ID/g
Salivary uptake ([1]; male, NODSCID 1L2RγKO, iv, 1 h): 0.22 ± 0.04 % ID/g
Seminal uptake ([1]; male, NODSCID 1L2RγKO, iv, 1 h): 2.62 ± 4.74 % ID/g
Spleen uptake ([1]; male, NODSCID 1L2RγKO, iv, 1 h): 0.20 ± 0.05 % ID/g
Stomach uptake ([1]; male, NODSCID 1L2RγKO, iv, 1 h): 0.11 ± 0.03 % ID/g
Tail uptake ([1]; male, NODSCID 1L2RγKO, iv, 1 h): 0.90 ± 0.29 % ID/g
Testes uptake ([1]; male, NODSCID 1L2RγKO, iv, 1 h): 0.26 ± 0.05 % ID/g
Thyroid uptake ([1]; male, NODSCID 1L2RγKO, iv, 1 h): 0.29 ± 0.08 % ID/g
Tumor uptake ([1]; male, NODSCID 1L2RγKO, iv, 1 h): 0.67 ± 0.15 % ID/g
Urine uptake ([1]; male, NODSCID 1L2RγKO, iv, 1 h): 441 ± 138 % ID/g
Blood: Salivary ratio [1]: 4.86 ± 1.16
Tumor: Blood ratio [1]: 0.65 ± 0.15
Tumor: Kidney ratio [1]: 0.32 ± 0.05
Tumor: Muscle ratio [1]: 5.68 ± 1.12
Tumor: Salivary ratio [1]: 3.08 ± 0.53

COc1ccc(CCCC(=O)NCC(=O)N[C@@H](CCCCNC(=O)CN2CCN(CC(=O)O)CCN(CC(=O)O)CCN(CC(=O)O)CC2)C(=O)NC[C@H]2CC[C@H](C(=O)N[C@@H](Cc3c4ccccc4cc4ccccc34)C(=O)NCCCC[C@H](NC(=O)N[C@@H](COCC(=O)O)C(=O)O)C(=O)O)CC2)cc1 [177Lu-HTK04028, metal not drawn]
tissue uptake at 1 h ([2]; Adrenal glands uptake): 3.25 ± 0.34 %ID/g
tissue uptake at 4 h ([2]; Adrenal glands uptake): 2.18 ± 0.33 %ID/g
tissue uptake at 24 h ([2]; Adrenal glands uptake): 0.73 ± 0.13 %ID/g
tissue uptake at 72 h ([2]; Adrenal glands uptake): 0.48 ± 0.17 %ID/g
tissue uptake at 120 h ([2]; Adrenal glands uptake): 0.33 ± 0.05 %ID/g
tissue uptake at 1 h ([2]; Blood uptake): 17.7 ± 2.1 %ID/g
tissue uptake at 4 h ([2]; Blood uptake): 12.2 ± 1.66 %ID/g
tissue uptake at 24 h ([2]; Blood uptake): 0.82 ± 0.11 %ID/g
tissue uptake at 72 h ([2]; Blood uptake): 0.05 ± 0.01 %ID/g
tissue uptake at 120 h ([2]; Blood uptake): 0.02 %ID/g
tissue uptake at 1 h ([2]; Bone uptake): 0.99 ± 0.21 %ID/g
tissue uptake at 4 h ([2]; Bone uptake): 0.63 ± 0.1 %ID/g
tissue uptake at 24 h ([2]; Bone uptake): 0.11 ± 0.02 %ID/g
tissue uptake at 72 h ([2]; Bone uptake): 0.05 ± 0.02 %ID/g
tissue uptake at 120 h ([2]; Bone uptake): 0.04 ± 0.02 %ID/g
tissue uptake at 1 h ([2]; Brain uptake): 0.26 ± 0.03 %ID/g
tissue uptake at 4 h ([2]; Brain uptake): 0.19 ± 0.02 %ID/g
tissue uptake at 24 h ([2]; Brain uptake): 0.02 %ID/g
tissue uptake at 72 h ([2]; Brain uptake): 0.01 %ID/g
tissue uptake at 1 h ([2]; Fat uptake): 1.26 ± 0.21 %ID/g
tissue uptake at 4 h ([2]; Fat uptake): 0.89 ± 0.24 %ID/g
tissue uptake at 24 h ([2]; Fat uptake): 0.14 ± 0.02 %ID/g
tissue uptake at 72 h ([2]; Fat uptake): 0.06 ± 0.02 %ID/g
tissue uptake at 120 h ([2]; Fat uptake): 0.03 ± 0.01 %ID/g
tissue uptake at 1 h ([2]; Heart uptake): 4.15 ± 0.31 %ID/g
tissue uptake at 4 h ([2]; Heart uptake): 2.67 ± 0.31 %ID/g
tissue uptake at 24 h ([2]; Heart uptake): 0.36 ± 0.03 %ID/g
tissue uptake at 72 h ([2]; Heart uptake): 0.12 ± 0.03 %ID/g
tissue uptake at 120 h ([2]; Heart uptake): 0.07 ± 0.01 %ID/g
tissue uptake at 1 h ([2]; Intestine uptake): 1.23 ± 0.24 %ID/g
tissue uptake at 4 h ([2]; Intestine uptake): 1.04 ± 0.12 %ID/g
tissue uptake at 24 h ([2]; Intestine uptake): 0.23 ± 0.05 %ID/g
tissue uptake at 72 h ([2]; Intestine uptake): 0.07 ± 0.03 %ID/g
tissue uptake at 120 h ([2]; Intestine uptake): 0.08 ± 0.05 %ID/g
tissue uptake at 1 h ([2]; Kidneys uptake): 8.3 ± 1.58 %ID/g
tissue uptake at 4 h ([2]; Kidneys uptake): 9.21 ± 2.76 %ID/g
tissue uptake at 24 h ([2]; Kidneys uptake): 4.32 ± 0.58 %ID/g
tissue uptake at 72 h ([2]; Kidneys uptake): 1.77 ± 0.25 %ID/g
tissue uptake at 120 h ([2]; Kidneys uptake): 1.16 ± 0.13 %ID/g
tissue uptake at 1 h ([2]; Lacrimal uptake): 0.51 ± 0.23 %ID/g
tissue uptake at 4 h ([2]; Lacrimal uptake): 0.39 ± 0.19 %ID/g
tissue uptake at 24 h ([2]; Lacrimal uptake): 0.05 ± 0.04 %ID/g
tissue uptake at 72 h ([2]; Lacrimal uptake): 0.01 ± 0.01 %ID/g
tissue uptake at 1 h ([2]; Liver uptake): 2.93 ± 0.51 %ID/g
tissue uptake at 4 h ([2]; Liver uptake): 2.29 ± 0.55 %ID/g
tissue uptake at 24 h ([2]; Liver uptake): 0.54 ± 0.09 %ID/g
tissue uptake at 72 h ([2]; Liver uptake): 0.22 ± 0.02 %ID/g
tissue uptake at 120 h ([2]; Liver uptake): 0.31 ± 0.3 %ID/g
tissue uptake at 1 h ([2]; Lungs uptake): 7.88 ± 1.77 %ID/g
tissue uptake at 4 h ([2]; Lungs uptake): 5.79 ± 0.44 %ID/g
tissue uptake at 24 h ([2]; Lungs uptake): 1.08 ± 0.72 %ID/g
tissue uptake at 72 h ([2]; Lungs uptake): 0.18 ± 0.02 %ID/g
tissue uptake at 120 h ([2]; Lungs uptake): 0.09 ± 0.01 %ID/g
tissue uptake at 1 h ([2]; Muscle uptake): 1.32 ± 0.19 %ID/g
tissue uptake at 4 h ([2]; Muscle uptake): 0.83 ± 0.09 %ID/g
tissue uptake at 24 h ([2]; Muscle uptake): 0.11 ± 0.02 %ID/g
tissue uptake at 72 h ([2]; Muscle uptake): 0.03 ± 0.01 %ID/g
tissue uptake at 120 h ([2]; Muscle uptake): 0.02 %ID/g
tissue uptake at 1 h ([2]; Pancreas uptake): 1.53 ± 0.22 %ID/g
tissue uptake at 4 h ([2]; Pancreas uptake): 1.24 ± 0.04 %ID/g
tissue uptake at 24 h ([2]; Pancreas uptake): 0.15 ± 0.02 %ID/g
tissue uptake at 72 h ([2]; Pancreas uptake): 0.05 ± 0.01 %ID/g
tissue uptake at 120 h ([2]; Pancreas uptake): 0.03 %ID/g
tissue uptake at 1 h ([2]; Salivary uptake): 2.55 ± 0.21 %ID/g
tissue uptake at 4 h ([2]; Salivary uptake): 1.75 ± 0.25 %ID/g
tissue uptake at 24 h ([2]; Salivary uptake): 0.45 ± 0.1 %ID/g
tissue uptake at 72 h ([2]; Salivary uptake): 0.19 ± 0.05 %ID/g
tissue uptake at 120 h ([2]; Salivary uptake): 0.11 ± 0.03 %ID/g
tissue uptake at 1 h ([2]; Seminal uptake): 1.53 ± 0.97 %ID/g
tissue uptake at 4 h ([2]; Seminal uptake): 0.9 ± 0.2 %ID/g
tissue uptake at 24 h ([2]; Seminal uptake): 0.12 ± 0.02 %ID/g
tissue uptake at 72 h ([2]; Seminal uptake): 0.05 ± 0.01 %ID/g
tissue uptake at 120 h ([2]; Seminal uptake): 0.05 ± 0.03 %ID/g
tissue uptake at 1 h ([2]; Spleen uptake): 1.53 ± 0.23 %ID/g
tissue uptake at 4 h ([2]; Spleen uptake): 1.44 ± 0.31 %ID/g
tissue uptake at 24 h ([2]; Spleen uptake): 0.48 ± 0.14 %ID/g
tissue uptake at 72 h ([2]; Spleen uptake): 0.49 ± 0.16 %ID/g
tissue uptake at 120 h ([2]; Spleen uptake): 0.69 ± 0.36 %ID/g
tissue uptake at 1 h ([2]; Stomach uptake): 0.51 ± 0.18 %ID/g
tissue uptake at 4 h ([2]; Stomach uptake): 0.45 ± 0.06 %ID/g
tissue uptake at 24 h ([2]; Stomach uptake): 0.31 ± 0.1 %ID/g
tissue uptake at 72 h ([2]; Stomach uptake): 0.07 ± 0.07 %ID/g
tissue uptake at 120 h ([2]; Stomach uptake): 0.1 ± 0.1 %ID/g
tissue uptake at 1 h ([2]; Tail uptake): 4.85 ± 1.59 %ID/g
tissue uptake at 4 h ([2]; Tail uptake): 2.21 ± 0.18 %ID/g
tissue uptake at 24 h ([2]; Tail uptake): 0.31 ± 0.1 %ID/g
tissue uptake at 72 h ([2]; Tail uptake): 0.15 ± 0.04 %ID/g
tissue uptake at 120 h ([2]; Tail uptake): 0.1 ± 0.03 %ID/g
tissue uptake at 1 h ([2]; Testes uptake): 2.26 ± 0.46 %ID/g
tissue uptake at 4 h ([2]; Testes uptake): 2.66 ± 0.41 %ID/g
tissue uptake at 24 h ([2]; Testes uptake): 0.55 ± 0.05 %ID/g
tissue uptake at 72 h ([2]; Testes uptake): 0.31 ± 0.05 %ID/g
tissue uptake at 120 h ([2]; Testes uptake): 0.22 ± 0.01 %ID/g
tissue uptake at 1 h ([2]; Thyroid uptake): 3.3 ± 0.42 %ID/g
tissue uptake at 4 h ([2]; Thyroid uptake): 2.3 ± 0.3 %ID/g
tissue uptake at 24 h ([2]; Thyroid uptake): 0.52 ± 0.08 %ID/g
tissue uptake at 72 h ([2]; Thyroid uptake): 0.24 ± 0.04 %ID/g
tissue uptake at 120 h ([2]; Thyroid uptake): 0.13 ± 0.02 %ID/g
tissue uptake at 1 h ([2]; Tumor uptake): 19 ± 5.86 %ID/g
tissue uptake at 4 h ([2]; Tumor uptake): 42.6 ± 11.6 %ID/g
tissue uptake at 24 h ([2]; Tumor uptake): 30.2 ± 2.74 %ID/g
tissue uptake at 72 h ([2]; Tumor uptake): 26.1 ± 7.29 %ID/g
tissue uptake at 120 h ([2]; Tumor uptake): 28.4 ± 5.11 %ID/g
